Assay results reported in EP4725955A1, “PEPTIDE TARGETING C-MET, PHARMACEUTICAL COMPOSITION COMPRISING SAID PEPTIDE AND USE THEREOF” (Nanjing Anji Biotechnology Co., Ltd., priority 2023, dated 2025).
In brackets after ≈: the same amount, converted by molar mass. Where a SMILES comes first, the peptide text is derived from it. Where no end group is shown, it is not given here. The star is where a group is joined. Paclitaxel(2'-O-succinyl) = CC(=O)O[C@H]1C(=O)[C@@]2(C)[C@H]([C@H](OC(=O)c3ccccc3)[C@]3(O)C[C@H](OC(=O)[C@H](OC(=O)CCC(=O)*)[C@@H](NC(=O)c4ccccc4)c4ccccc4)C(C)=C1C3(C)C)[C@]1(OC(C)=O)CO[C@@H]1C[C@@H]2O; FITC = O=C1OC2(c3ccc(O)cc3Oc3cc(O)ccc32)c2ccc(NC(=S)*)cc21; Acp = not defined here

Columns and labels:
[1] = Solubility of drug and drug-peptide conjugate in water (supersaturated solution, HPLC standard curve); assay type: physicochemical
Method: The peak areas of the series standard solutions were detected via HPLC (mobile phase: 0.065% TFA water + 0.05% TFA; chromatographic column: YMC-TriartC18; wavelength: 220 nm), so as to construct a concentration-peak area standard curve, as shown in FIG. 13. In FIG. 13, the horizontal axis represents the concentration, and the longitudinal axis represents the peak area.
The peak area of the sample was detected via HPLC, and the solubility value of the sample in water was calculated by the concentration-peak area standard curve. Table 5 Solubility Value of Sample in Water

[2] = molecular target: c-Met positive cell MKN-45 (Homo sapiens, UniProt P08581); assay: Flow cytometry detection of binding of FITC-labelled peptide to c-Met positive cell MKN-45; assay type: cell-based; settings: for binding affinity to c-Met positive cell MKN45 compared with P1-AI: alanine scanning, FITC-labelled peptides 10 µM to 0.625 µM, FIG. 12; for affinity to c-Met positive cell MKN45 relative to CM7-1: comparison of EC50 with CM7-1, FITC-labelled peptides tested; for binding to c-Met positive cell MKN45, dose dependence: different peptide concentrations, flow cytometry
Sequence of c-Met positive cell MKN-45 (P08581 25-1390): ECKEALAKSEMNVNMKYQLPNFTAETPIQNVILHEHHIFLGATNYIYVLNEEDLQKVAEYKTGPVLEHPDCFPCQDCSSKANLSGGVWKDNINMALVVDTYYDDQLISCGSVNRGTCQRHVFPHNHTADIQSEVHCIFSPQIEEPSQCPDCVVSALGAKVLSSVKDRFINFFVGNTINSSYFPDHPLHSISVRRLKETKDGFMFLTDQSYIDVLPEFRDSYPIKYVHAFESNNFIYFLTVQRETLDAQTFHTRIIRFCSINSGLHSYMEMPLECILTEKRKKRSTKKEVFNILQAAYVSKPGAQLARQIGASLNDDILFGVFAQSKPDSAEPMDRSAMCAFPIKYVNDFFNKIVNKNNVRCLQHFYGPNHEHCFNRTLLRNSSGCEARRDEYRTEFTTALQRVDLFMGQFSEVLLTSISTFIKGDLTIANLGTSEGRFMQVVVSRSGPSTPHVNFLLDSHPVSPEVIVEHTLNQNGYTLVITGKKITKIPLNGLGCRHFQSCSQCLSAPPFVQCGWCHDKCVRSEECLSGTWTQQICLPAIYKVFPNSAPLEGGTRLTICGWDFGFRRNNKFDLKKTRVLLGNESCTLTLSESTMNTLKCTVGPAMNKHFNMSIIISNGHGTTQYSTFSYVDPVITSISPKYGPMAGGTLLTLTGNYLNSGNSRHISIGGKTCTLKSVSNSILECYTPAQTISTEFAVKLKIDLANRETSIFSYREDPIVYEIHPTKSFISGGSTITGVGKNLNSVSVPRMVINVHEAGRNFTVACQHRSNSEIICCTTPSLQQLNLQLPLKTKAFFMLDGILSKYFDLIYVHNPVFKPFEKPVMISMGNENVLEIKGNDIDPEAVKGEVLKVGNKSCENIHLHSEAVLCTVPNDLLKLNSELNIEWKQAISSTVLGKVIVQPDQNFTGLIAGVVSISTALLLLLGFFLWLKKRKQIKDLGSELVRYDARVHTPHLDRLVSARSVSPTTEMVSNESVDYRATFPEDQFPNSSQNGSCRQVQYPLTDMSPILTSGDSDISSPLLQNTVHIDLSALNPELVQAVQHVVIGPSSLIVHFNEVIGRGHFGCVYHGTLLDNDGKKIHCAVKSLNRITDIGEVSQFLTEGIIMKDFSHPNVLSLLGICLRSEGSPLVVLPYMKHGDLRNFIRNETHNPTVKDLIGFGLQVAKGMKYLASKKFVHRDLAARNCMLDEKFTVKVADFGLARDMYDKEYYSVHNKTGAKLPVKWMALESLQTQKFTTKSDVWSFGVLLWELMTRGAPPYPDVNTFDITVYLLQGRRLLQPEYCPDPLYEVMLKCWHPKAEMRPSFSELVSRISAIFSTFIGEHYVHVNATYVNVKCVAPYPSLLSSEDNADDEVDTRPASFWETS
Method: MKN 45 cells cultured in a 1640 culture solution (Nanjing Senbeijia Biotechnology Co., Ltd.) were collected, and washed twice with pre-cooled PBS. 1 mL of 1% BSA solution was added into the washed cells, and then the above mixed system was placed on a rotary mixer (Lichen Technology Co., Ltd.) and incubated for 30 min at 4°C. Different concentrations of FITC-P1-AI, FITC-CM7-1, FITC-CM7-1.1, FITC-CM7-1.2, FITC-CM7-1.3, FITC-CM7-1.4, FITC-CM7-1.5 and FITC-CM7-1.6 peptide solutions were respectively added in the dark to obtain multiple groups, and then the mixtures were placed on the rotary mixer and incubated for 1 h at 4°C in the dark. After the incubation was completed, the mixed system of the cells was centrifuged for 5 min at 800 rpm, and then supernatant was discarded. The cells were washed twice with pre-cooled PBS, and the concentration of the cells was adjusted to 1×10^6 cells/mL using PBS. 3 parallel replicate wells were set up for cells in each group, with 0.5 mL prepared per sample; and a flow cytometer was used to detect the binding of the peptide to c-Met positive cell MKN-45, EC50 data and a binding curve were generated. […] Table 2 Binding affinity of peptide to MKN-45
MKN-45 cells cultured in a 1640 culture solution were collected, and washed twice with pre-cooled PBS 1 mL of 1% BSA solution was added into the washed cells, and then the above mixed system was placed on a rotary mixer and incubated for 30-60 min at 4°C. 10 µM of FITC-P1-AI peptide solution and FITC-CM7-1 were respectively added in the dark to form two groups, and the above mixed systems were placed on the rotary mixer and incubated for 1 h at 4°C in the dark. After the incubation was completed, the mixed system of the cells was centrifuged for 5 min at 800 rpm, and then supernatant was discarded. The cells were washed 1-2 times with pre-cooled PBS, and then the concentration of the washed cells was adjusted to 1×10^6 cells/mL by using PBS. 3 parallel replicate wells were set up for cells in each group, with 0.5 mL prepared per sample; and a flow cytometer was used to detect the binding of the peptide to c-Met positive cells.
The MKN-45 cells cultured in a 1640 culture solution were collected, and washed twice with pre-cooled PBS. […] After the incubation was completed, the mixed system of the cells was centrifuged for 5 min at 800 rpm, and then supernatant was discarded. The cells were washed 1-2 times with pre-cooled PBS, and then the concentration of the washed cells was adjusted to 1×10^6 cells/mL by using PBS. 3 parallel replicate wells were set up for cells in each group, with 0.5 mL prepared per sample; and a flow cytometer was used to detect the binding of the peptide to the c-Met positive cell MKN-45. […] Table 4 Sequences of Peptides

[3] = Solubility detection of peptide in ultrapure water (visual); assay type: physicochemical
Method: 13.4 mg of CM7-1 and 15 mg of P1-AI were respectively weighed and dissolved using ultrapure (UP) water (prepared using Youpu Pure Water/Ultrapure Water Manufacturing System (UPR-II-10T)).

[4] = literature values; cited from earlier work
[5] = tested on: MKN-45 subcutaneous xenograft tumor; assay: Living imaging of tissue distribution in MKN-45 subcutaneous xenograft tumor mice; assay type: in vivo, nude mice; settings: 5 mg/kg via tail vein, tumor about 400 mm^3, FIG. 11
Method: In MKN-45 subcutaneous xenograft tumor mice (nude mice were purchased from Changzhou Kavens Laboratory Animal Co., Ltd), 5X10^6 MKN45 cells were subcutaneously implanted into nude mice; and when the volume of the tumor was about 400 mm^3, 5 mg/kg Cy5-P1-AI was injected via a tail vein, and its tissue distribution was analyzed using a living imaging instrument. […] In the figure, a circle area is a tumor site.

[6] = tested on: human hepatic stellate cell LX-2; assay: Specificity: flow cytometry binding of peptide to LX-2 cells that barely express c-Met; assay type: cell-based; settings: concentration of up to 10 µM, cells barely expressing c-Met, FIG. 8
Method: Human hepatic stellate cells LX-2 cultured in a 1640 culture solution were collected, and washed twice with pre-cooled PBS. 1 mL of 1% BSA solution was added into the washed cells, and then the above mixed system were placed on a rotary mixer and incubated for 30 min at 4°C. 10 µM of FITC-P1-AI peptide solution and FITC-CM7-1 were respectively added in the dark to form two groups, and the above mixed systems were placed on the rotary mixer and incubated for 1 h at 4°C in the dark. After the incubation was completed, the mixed system of the cells was centrifuged for 5 min at 800 rpm, and then supernatant was discarded. The cells were washed twice with pre-cooled PBS, and the concentration of the cells was adjusted to 1×10^6 cells/mL using PBS. 3 parallel replicate wells were set up at concentrations of 1 µM, 5 µM and 10 µM for cells in each group, with 0.5 mL prepared per sample; and a flow cytometer was used to detect the binding of the peptide to LX-2 cells.

c-Met protein = c-Met protein (UniProt P08581 25-932, limits assumed); assay: microscale thermophoresis (MST), FITC-peptide with titrated c-Met protein
Sequence of c-Met protein (P08581 25-932 limits assumed): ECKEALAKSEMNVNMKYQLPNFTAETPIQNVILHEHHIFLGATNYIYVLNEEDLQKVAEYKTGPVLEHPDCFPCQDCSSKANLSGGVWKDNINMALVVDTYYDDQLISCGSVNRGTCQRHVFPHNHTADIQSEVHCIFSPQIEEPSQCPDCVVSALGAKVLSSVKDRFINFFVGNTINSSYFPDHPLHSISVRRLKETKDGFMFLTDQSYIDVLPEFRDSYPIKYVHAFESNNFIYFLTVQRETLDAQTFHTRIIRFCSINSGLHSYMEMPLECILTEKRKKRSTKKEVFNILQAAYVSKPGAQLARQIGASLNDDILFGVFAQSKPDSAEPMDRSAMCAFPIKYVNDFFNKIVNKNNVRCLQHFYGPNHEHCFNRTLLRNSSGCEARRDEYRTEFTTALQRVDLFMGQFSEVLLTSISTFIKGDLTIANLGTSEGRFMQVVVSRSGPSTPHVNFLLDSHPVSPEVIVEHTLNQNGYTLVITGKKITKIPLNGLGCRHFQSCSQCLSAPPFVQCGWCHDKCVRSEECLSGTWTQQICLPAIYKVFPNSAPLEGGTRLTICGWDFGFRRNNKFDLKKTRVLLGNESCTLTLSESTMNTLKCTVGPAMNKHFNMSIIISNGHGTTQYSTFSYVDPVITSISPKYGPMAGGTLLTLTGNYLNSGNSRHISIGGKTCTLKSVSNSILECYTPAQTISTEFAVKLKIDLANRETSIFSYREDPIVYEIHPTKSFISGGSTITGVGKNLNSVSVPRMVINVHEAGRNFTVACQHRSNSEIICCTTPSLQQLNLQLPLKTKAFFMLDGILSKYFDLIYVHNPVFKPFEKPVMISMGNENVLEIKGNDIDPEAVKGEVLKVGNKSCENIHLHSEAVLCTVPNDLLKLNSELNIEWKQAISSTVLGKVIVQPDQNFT

[7] = molecular target: T1, c-Met on c-Met positive human gastric cancer cell MKN-45 (human, UniProt P08581 25-1390); assay: flow cytometry, FITC-peptide (0.625-10 µM) on MKN-45 cells
T1 construct: whole, on cells; also called hepatocyte growth factor receptor; HGFR
T1 sequence (P08581 25-1390): as the sequence (P08581 25-1390) above

[8] = molecular target: T1, c-Met on c-Met positive human gastric …; assay: flow cytometry, FITC-peptide on c-Met positive MKN-45 cells

CC(=O)O[C@@]12CO[C@@H]1C[C@H](O)[C@@]1(C)C(=O)[C@H](O)C3=C(C)[C@@H](OC(=O)[C@H](OC(=O)CCC(=O)N[C@@H](CCCNC(=N)N)C(=O)N[C@@H](CO)C(=O)N4CCC[C@H]4C(=O)N[C@@H](Cc4ccc(O)cc4)C(=O)N[C@@H](C)C(=O)N[C@@H](CC(N)=O)C(=O)N[C@@H](CO)C(=O)O)[C@@H](NC(=O)OC(C)(C)C)c4ccccc4)C[C@@](O)([C@@H](OC(=O)c4ccccc4)[C@H]21)C3(C)C [DOC-P1-AI]
Solubility increasing fold of drug-peptide conjugate compared with drug [1]: 1.62×10^5 fold

ASPYANS [P1-AI-1]
binding affinity to c-Met positive cell MKN45 compared with P1-AI [2]: reduced

DQIIANN [CM7-1, DQIIANN, reference compound]
state in water ([3]; concentration 6 mM): completely cloudy state

CC(=O)O[C@H]1C(=O)[C@@]2(C)[C@H]([C@H](OC(=O)c3ccccc3)[C@]3(O)C[C@H](OC(=O)[C@H](OC(=O)CCC(=O)N[C@@H](CCCNC(=N)N)C(=O)N[C@@H](CO)C(=O)N4CCC[C@H]4C(=O)N[C@@H](Cc4ccc(O)cc4)C(=O)N[C@@H](C)C(=O)N[C@@H](CC(N)=O)C(=O)N[C@@H](CO)C(=O)O)[C@@H](NC(=O)c4ccccc4)c4ccccc4)C(C)=C1C3(C)C)[C@]1(OC(C)=O)CO[C@@H]1C[C@@H]2O [PTX-P1-AI] ({Paclitaxel(2'-O-succinyl)}-RSPYANS-OH; N-terminus assumed)
Solubility increasing fold of drug-peptide conjugate compared with drug [1]: 46.33 fold

RSPYANS [P1-AI, RSPYANS]
state in water ([3]; concentration 19 mM): clear solution

RSPAANS [P1-AI-4]
binding affinity to c-Met positive cell MKN45 compared with P1-AI [2]: increased binding affinity | binding affinity to c-Met compared with CM7-1 ([2]; conclusion of Example 9): superior

CCc1c2c(nc3ccc(OCC(=O)N4CCCCC4)cc13)-c1cc3c(c(=O)n1C2)COC(=O)[C@]3(O)CC [7-ethyl-10-[2-oxo-2-(piperidinyl)ethoxy]camptothecin]
solubility in water [4]: about 6.22 µg/mL

Cy5-RSPYANS [Cy5-P1-AI]
tissue distribution by living imaging [5]: enriched in cancer sites highly expressing c-Met

RAPYANS [P1-AI-2]
binding affinity to c-Met positive cell MKN45 compared with P1-AI [2]: reduced

DAIIANN [CM7-1.2]
affinity to c-Met positive cell MKN45 relative to CM7-1 [2]: significantly increased affinity | binding to c-Met positive cell MKN45, dose dependence [2]: dose-dependent

RSAYANS [P1-AI-3]
binding affinity to c-Met positive cell MKN45 compared with P1-AI [2]: reduced

FITC-RSPYANS (not fully specified; FITC label) [FITC-P1-AI]
binding to LX-2 cells [6]: barely binds

CC[C@@]1(O)C(=O)OCc2c1cc1n(c2=O)Cc2cc3ccccc3nc2-1 [CPT, camptothecin]
solubility at 15 min ([1]; thermodynamic from solid): 0.084 µg/mL (≈ 0.241 µM)

DQIIANA [CM7-1.6]
affinity to c-Met positive cell MKN45 relative to CM7-1 [2]: increased affinity

DQIAANN [CM7-1.4]
affinity to c-Met positive cell MKN45 relative to CM7-1 [2]: increased affinity

DQAIANN [CM7-1.3]
affinity to c-Met positive cell MKN45 relative to CM7-1 [2]: significantly increased affinity | binding to c-Met positive cell MKN45, dose dependence [2]: dose-dependent

B1: FITC-P1-AI (FITC-RSPYANS) (peptide)
peptide: {FITC-Acp}-RSPYANS
modifications: reading uncertain
notes: Synthetic 7-mer made by solid-phase synthesis; Molecular weight 1296.36
Kd (c-Met protein): 41.1 nM | fold increase of affinity against CM7-1 (c-Met protein): 30.9 fold

{FITC}-ASPYANS (Alanine variant of P1-AI at position 1) [FITC-P1-AI-1 (FITC-ASPYANS)]
binding result [7]: binds

{FITC}-RAPYANS (Alanine variant of P1-AI at position 2) [FITC-P1-AI-2 (FITC-RAPYANS)]
binding result [7]: binds

{FITC}-RSAYANS (Alanine variant of P1-AI at position 3) [FITC-P1-AI-3 (FITC-RSAYANS)]
binding result [7]: binds

{FITC}-RSPAANS (Alanine variant of P1-AI at position 4) [FITC-P1-AI-4 (FITC-RSPAANS)]
binding result [7]: binds

B2: FITC-P1-AI-6 (FITC-RSPYAAS) (peptide)
peptide: {FITC}-RSPYAAS
notes: Alanine variant of P1-AI at position 6; also called P1-Al-6
binding result [7]: binds

B3: FITC-CM7-1 (FITC-DQIIANN) (peptide)
peptide: {FITC}-DQIIANN
notes: tested as the FITC-labelled form; Molecular weight 1289.36
EC50 [8]: 9.51 µM | Kd (c-Met protein): 1270 nM

{FITC}-AQIIANN (Alanine variant of CM7-1 at position 1) [FITC-CM7-1.1 (FITC-AQIIANN)]
EC50 [8]: 2.07 µM

{FITC}-DAIIANN (Alanine variant of CM7-1 at position 2) [FITC-CM7-1.2 (FITC-DAIIANN)]
EC50 [8]: 1.88 µM

{FITC}-DQIAANN (Alanine variant of CM7-1 at position 4) [FITC-CM7-1.4 (FITC-DQIAANN)]
EC50 [8]: 5.37 µM

{FITC}-DQAIANN (Alanine variant of CM7-1 at position 3) [FITC-CM7-1.3 (FITC-DQAIANN)]
EC50 [8]: 0.0456 µM

{FITC}-DQIIANA (Alanine variant of CM7-1 at position 7) [FITC-CM7-1.6 (FITC-DQIIANA)]
EC50 [8]: 5.05 µM

{FITC}-DQIIAAN (Alanine variant of CM7-1 at position 6) [FITC-CM7-1.5 (FITC-DQIIAAN)]
EC50 [8]: 15.2 µM
